# According to patent publication US11441147B2 (priority 2013, dated 2022):
# Where two headings read alike, the source gives them in different places.
# B1: CYP3RNA: 791 bp dsRNA complementary to all three Fg CYP51 genes, from stacked clone CYP51B-CYP51A-CYP51C; SEQ ID NO:7 (nucleic acid)
# DNA: CAGCAAGTTTGACGAGTCCCTGGCCGCTCTCTACCACGACCTCGATATGGGCTTCACCCCCATCAACTTCATGCTTCACTGGGCCCCTCTCCCCTGGAACCGTAAGCGCGACCACGCCCAGCGCACTGTTGCCAAGATCTACATGGACACTATCAAGGAGCGCCGCGCCAAGGGCAACAACGAATCCGAGCATGACATGATGAAGCACCTTATGAACTCTCCATGGCGGCCGCGGGAATTCGATATCGGTCCATTGACAATCCCCGTCTTTGGTAGCGATGTCGTATACGATTGTCCCAACTCGAAGCTCATGGAACAAAAGAAGTTTGTCAAGTTTGGCCTTACGCAAAAAGCACTCGAGTCACACGTCCAGTTAATCGAGCGAGAGGTTCTTGACTACGTCGAAACTGATCCATCCTTTTCTGGCAGAACTAGCACCATCGATGTCCCCAAGGCAATGGCTGAGATAACAATCTTTACTGCCTCACGTTCTTTGCAGGGTGAGGAAGTTCGGAGAAAACTCACTGCCGAGTTTGCTGCCACTAGTATTGGAAGCACCGTACAATATGGCATCGACCCGTACGCTTTTTTCTTCGACTGCAGAGATAAATACGGCGACTGCTTTACCTTTATTCTCCTTGGCAAATCAACGACTGTCTTTCTTGGTCCCAAGGGCAATGACTTTATCCTCAACGGCAAACACGCCGATCTCAACGCCGAGGACGTTTATGGGAAACTTACCACGCCCGTGTTTGGTGAGGAGGTTGTTTATGACTGCTCCAATG
# modifications: combines partial sequences of Fusarium graminearum CYP51B-CYP51A-CYP51C
# Key:
# [1] = tested on: Fusarium graminearum (Fg) macroconidia; assay type: cell-based; conditions: for Morphology of Fg macroconidia (microscopic analysis): 1.5 μg dsRNA per 100 macroconidia in 100 μl SNA medium
# CYP51A = assay type: cell-based, Fusarium graminearum; conditions: 72 hpt; normalized to beta-tubulin
# CYP51B = assay type: cell-based, Fusarium graminearum; conditions: 72 hpt; normalized to beta-tubulin
# CYP51C = assay type: cell-based, Fusarium graminearum; conditions: 72 hpt; normalized to beta-tubulin
# [2] = tested on: Fusarium graminearum (Fg) macroconidia; assay type: cell-based; conditions: 0 hpt and 72 hpt; dose dependent, 75 μg to 1 μg dsRNA
# GFP-expressing Fg strain = assay type: in vivo, Fusarium graminearum on Arabidopsis thaliana Col-0; conditions: 3 dpi; CYP3RNA-expressing leaves
# Fg CYP51A = assay type: in vivo, Fusarium graminearum; conditions: 3 dpi; average of lines L1, L8, L10, L11 vs ev control line
# Fg CYP51B = assay type: in vivo, Fusarium graminearum; conditions: 3 dpi; average of lines L1, L8, L10, L11 vs ev control line
# Fg CYP51C = assay type: in vivo, Fusarium graminearum; conditions: 3 dpi; average of lines L1, L8, L10, L11 vs ev control line
# [3] = tested on: siRNAs corresponding to the targeted CYP51 sequences; experiment: Northern analysis of siRNAs in Arabidopsis leaves with CYP3RNA as probe; set-up: species or system Arabidopsis thaliana; conditions: Fg-infested and uninfested leaves from CYP3RNA-expressing plants
# Method: For detecting siRNA, total RNA was extracted from the Arabidopsis lines using TRIzol reagent (Invitrogen) following the manufacturer's protocol. A total of 15 μg total RNA was separated in a 16% polyacrylamide-7 M urea gel, and transferred onto Hybond Nylon membrane (Amersham, UK) using a semidry blotter (BioRad) at constant current (250 mA) for 3 h. The RNA was UV-cross-linked to the membrane at 1200×100 μjoules (UV Stratalinker) energy. The membrane was pre-hybridized for 45 min at 42° C. in 20 ml PerfectHyb-Puffer (Sigma). The complete 791 bp CYP3RNA PCR amplicon was used as a template for random labeling (Random Primer DNA Labeling with Kit, NEB), added to the hybridization buffer, and hybridized overnight at 42° C. The membrane was washed twice at room temperature with 5×SSC+0.01% SDS. The membrane was exposed on phosphorimaging screens (Bio-Rad) and signals were detected using a molecular imager and the Quantity One software (BioRad). A parallel loading of low range RNA marker (Fermentas) was used as size marker.
# It was further assessed whether this reduction in Fg CYP51 transcripts was associated with the production of corresponding siRNAs. In Northern analyses using CYP3RNA as the probe, siRNAs corresponding to the targeted CYP51 sequences in both Fg-infested and uninfested leaves from CYP3RNA-expressing plants were detected (FIG. 8). […]
# [4] = tested on: Fusarium graminearum (Fg); assay type: in vivo, Fusarium graminearum on barley cultivar Golden Promise; conditions: 6 days after inoculation
# [5] = tested on: Fusarium graminearum (Fg); assay type: in vivo, Fusarium graminearum on barley; conditions: upper part sprayed, lower part inoculated after 2 days; 6 days after inoculation
# [6] = tested on: Fusarium graminearum (Fg); conditions: 3 dpi
molecule,measurement,setting,value
"CC(C)(C)C(O)(CCc1ccc(Cl)cc1)Cn1cncn1 (stereo not drawn) [tebuconazole, reference compound]",Phenotype of Fg macroconidia,"[1]; tebuconazole 5 mg/l, 72 h post treatment",phenotype comparable to that elicited by CYP3RNA treatment
B1,Morphology of Fg macroconidia (microscopic analysis),[1]; 48 h post treatment,swelling of hyphal tips
same,Morphology of Fg macroconidia (microscopic analysis),[1]; 72 h post treatment,morphological changes had become more pronounced
same,CYP51A transcript level vs mock control,CYP51A,significantly reduced
same,CYP51B transcript level vs mock control,CYP51B,significantly reduced
same,CYP51C transcript level vs mock control,CYP51C,significantly reduced
same,Fungal growth (optical densities of Fg cultures at 600 nm),[2],strongly inhibited
same,Fungal growth on intact leaves (GFP fluorescence),GFP-expressing Fg strain,restricted to the inoculation site
same,Reduction of relative transcript level of Fg CYP51A,Fg CYP51A,92%
same,Reduction of relative transcript level of Fg CYP51B,Fg CYP51B,89%
same,Reduction of relative transcript level of Fg CYP51C,Fg CYP51C,77%
same,siRNAs corresponding to the targeted CYP51 sequences,[3],detected
same,"Relative amount of fungal DNA (qPCR, normalized to plant ubiquitin DNA)",[4]; vs infected control leaves,significantly lower
same,Fungal growth on sprayed leaves (infection symptoms),"[4]; dsRNA 20 ng/μl sprayed 48 h before inoculation, vs buffer or GFP-dsRNA",significant inhibition of fungal growth
same,Fungal growth at sprayed upper and unsprayed lower leaf area (relative amount of fungal DNA),[5],observed not only at the CYP3RNA-treated upper leaf area but also at the lower leaf area
same,Reduction of fungal mycelium formation on leaves (trypan blue microscopy),[6]; CYP3RNA-expressing leaves vs Col-0 ev control,~100%
same,Disease symptoms on detached leaves,"[6]; T2 lines L1, L8, L10, L11, 5×10^4 Fg macroconidia per ml",no disease symptoms
same,Percentage of infested leaf area,"[6]; four transgenic lines, ev controls 77%",0.9%
